Experimental data reported in US20200230057A1, “Pharmaceutical Compositions, Methods for Preparation using Lipid Vesicle Particles of Defined Size, and Uses Thereof” (IMMUNOVACCINE TECHNOLOGIES INC., priority 2017, published 2020).

Experiment: HPLC peptide recovery before and after freeze-drying
Details: set specification 0.40-0.60 mg/mL for neoantigens, 0.2-0.3 mg/mL for A16L
Method: The composition prepared as described in Example 4, containing 14 neoantigens and the A16L T-helper peptide, was subjected to HPLC analysis to evaluate the peptide stability before and after freeze-drying.
Experimental Conditions: • IPQC Solutions: Dilute the IPQC solutions with Methanol and then with Mobile Phase A, e.g. as follows: • 100 mg In-Process Testing Solution • +450 μL Methanol, mix • +450 μL Mobile Phase A, mix • Mix by vortexing. Samples containing lipids will be slightly hazy. Dilution factor=10×. • Lyophilisates (for Release and Stability Testing): Solubilize the lyophilisate with Ultrapure lab water. Add 3-4 glass beads and vortex vigorously for 1 minute to assure complete homogenization. Dilute the solution with Methanol and subsequently with Mobile Phase A, e.g. as follows: • 100 mg In-Process Testing Solution • +450 μL Methanol, mix • +450 μL Mobile Phase A, mix • Mix by vortexing. The sample preparations will be slightly hazy. Dilution factor=20×.
The dried preparations were solubilized in water for HPLC analysis. T=0 is the day in which the samples were removed from the freeze-dryer. T=1M and T=3M are 1 month and 3 months after T=0, respectively, with the dried preparation having been stored at −20° C.

Sequence | Peptide concentration relative to set specification
CGTAFFINFIAIYHHASRAIPFGTMVA (Mut36) [Mut 36] | consistently outside the set specification
IPSGTTILNCFHDVLSGKLSGGSPGVP (Mut29A) [Mut 29a] | outside the set specification
VVDRNPQFLDPVLAYLMKGLCEKPLAS (Mut17) [Mut 17] | outside the set specification
